The source of these data is article PMC4834876.

The test deals with F-actin (filamentous actin) from rabbit muscle (rabbit), P68135. In words: co-sedimentation. The settings on record: remark: other sources report otherwise.

B1: EB1 full-length (end-binding protein 1), wild type, Q15691 1-268 (natural protein)
chain: MAVNVYSTSVTSDNLSRHDMLAWINESLQLNLTKIEQLCSGAAYCQFMDMLFPGSIALKKVKFQAKLEHEYIQNFKILQAGFKRMGVDKIIPVDKLVKGKFQDNFEFVQWFKKFFDANYDGKDYDPVAARQGQETAVAPSLVAPALNKPKKPLTSSSAAPQRPISTQRTAAAPKAGPGVVRKNPGVGNGDDEAAELMQQVNVLKLTVEDLEKERDFYFGKLRNIELICQENEGENDPVLQRIVDILYATDEGFVIPDEGGPQEEQEEY
As to B1, the percent co-pelleted (with APC-C1 added) was 50%.
